Experimental data published in patent publication US8071348B2, “Protein tyrosine phosphatase substrate-trapping double mutant and uses thereof” (Albert Einstein College of Medicine of Yeshiva University, priority 2002, dated 2011).
Numbering of substitutions follows the chain as printed. Names and notes keep the numbering of the source. [ ]: non-standard residue; d: D form. F2Pmp = N[C@@H](Cc1ccc(C(F)(F)P(=O)(O)O)cc1)C(=O)O

B1: Ac-Asp-Ala-Asp-Glu-F2Pmp-Leu-NH2 (peptide)
peptide: Ac-DADE[F2Pmp]L-NH2
notes: Synthetic hexapeptide printed in three-letter code; also called F2Pmp-containing peptide; non-hydrolyzable substrate analog
B2: C215S/Q262A: PTP1B double mutant, Cys215 to Ser and Gln262 to Ala (protein, UniProt P18031 1-435, looked up, variant C215S Q262A)
Tyrosine-protein phosphatase …: MEMEKEFEQIDKSGSWAAIYQDIRHEASDFPCRVAKLPKNKNRNRYRDVSPFDHSRIKLHQEDNDYINASLIKMEEAQRSYILTQGPLPNTCGHFWEMVWEQKSRGVVMLNRVMEKGSLKCAQYWPQKEEKEMIFEDTNLKLTLISEDIKSYYTVRQLELENLTTQETREILHFHYTTWPDFGVPESPASFLNFLFKVRESGSLSPEHGPVVVHSSAGIGRSGTFCLADTCLLLMDKRKDPSSVDIKKVLLEMRKFRMGLIATADQLRFSYLAVIEGAKFIMGDSSVQDQWKELSHEDLEPPPEHIPPPPRPPKRILEPHNGKCREFFPNHQWVKEETQEDKDCPIKEEKGSPLNAAPYGIESMSQDTEVRSRVVGGSLRGAQAASPAKGEPSLPEKDEDHALSYWKPFLVNMCVATVLTAGAYLCYRFLFNSNT
B3: PTP1B/D181A/C215S, catalytic domain (residues 1 to 321) (enzyme, human, UniProt P18031 1-321, looked up)
chain: MEMEKEFEQIDKSGSWAAIYQDIRHEASDFPCRVAKLPKNKNRNRYRDVSPFDHSRIKLHQEDNDYINASLIKMEEAQRSYILTQGPLPNTCGHFWEMVWEQKSRGVVMLNRVMEKGSLKCAQYWPQKEEKEMIFEDTNLKLTLISEDIKSYYTVRQLELENLTTQETREILHFHYTTWPAFGVPESPASFLNFLFKVRESGSLSPEHGPVVVHSSAGIGRSGTFCLADTCLLLMDKRKDPSSVDIKKVLLEMRKFRMGLIQTADQLRFSYLAVIEGAKFIMGDSSVQDQWKELSHEDLEPPPEHIPPPPRPPKRILEPHN

Columns and labels:
[1] = target: T1, PTP1B/D181A/Q262A, catalytic domain (residues 1 to 321) (human, UniProt P18031 1-321); test: ITC, 25 C, pH 7.0
T1 construct: range 1-321; Used in vitro (ITC, kinetics); also called PTP1B substrate-trapping double mutant
T1 sequence (looked up): B3 chain with S215C, Q262A
Procedure: (§1) All isothermal titration calorimetry experiments were performed using an MCS Isothermal Titration Calorimetry System from Microcal Inc. (Northampton, Mass.). Experiments at pH 7.0 were conducted at 25° C., in 50 mM 3,3-dimethylglutarate buffer containing 1 mM DTT. The ionic strength of the buffer was adjusted to 0.15 M by addition of NaCl. Protein concentration in the calorimeter cell was 27-85 µM, while the ligand concentration in the syringe was 0.37-1 mM.
(§2) The PTP1B samples used in the isothermal titration calorimetry experiments were dialyzed completely against buffer. High-concentration stock solutions were prepared for ligands with distilled water, and adjusted to pH 7.0. […] Protein dilution during titration was determined by titration of buffer into the protein solution. […] The heat of ligand dilution was corrected by subtracting the average heat of injection after saturation.
(§3) A typical titration curve and binding isotherm for the binding of D181A/Q262A to Ac-Asp-Ala-Asp-Glu-F_2Pmp-Leu-NH_2 is shown in FIG. 3. From curve-fitting of the binding isotherms, the stoichiometry for the binding of the peptide to D181A/Q262A was determined to be 1:1.

[2] = target: T2, PTP1B/D181A/C215E, catalytic domain (residues 1 to 321) (human, UniProt P18031 1-321); test: ITC, 25 C, pH 7.0
T2 construct: range 1-321; Used in vitro (ITC)
T2 sequence (looked up): B3 chain with S215E
Procedure: as §1, §2, §3

[3] = target: T3, Ac-Asp-Ala-Asp-Glu-F2Pmp-Leu-NH2 (Homo sapiens, UniProt P18031, C215S/Q262A); test: Isothermal titration calorimetry, binding of PTP1B and mutants to F2Pmp peptide; details: 25° C.; one peak absorbing heat, the other releasing heat
T3 construct: The catalytic domain of PTP1B (residues 1 to 321) was used for in vitro study; made in house; host or cells: E. coli (pT7-7 plasmids)
T3 sequence (P18031 1-321 C215S/Q262A): B3 chain with A181D, Q262A
Procedure: FIG. 3 portrays calorimetric isothermal titration for the reaction of peptide Ac-Asp-Ala-Asp-Glu-F2Pmp-Leu-NH2 with PTP1B/D181A/Q262A. The upper graph depicts raw data for thirty 8-μl injections of the peptide (0.5 mM stock) into the isothermal cell containing 32 μM PTP1B/D181A/Q262A, at 4-min intervals and 25° C. Both the protein and the peptide were in 50 mM 3,3-dimethylglutarate buffer (I=0.15 M, pH 7.0) containing 1 mM DTT. The lower graph depicts an integration curve showing experimental points that were obtained by integration of the above peaks as plotted against the molar ratio of the peptide to PTP1B/D181A/Q262A within the reaction cell. The solid line corresponds to the best fit to the data according to the nonlinear, least-squares regression algorithm, ORIGIN (29).
as §1, with “Experiments at pH 7.0 were conducted at 25° C., in 50 mM 3,3-dimethylglutarate buffer containing 1 mM DTT.” left out, “μM,” for “µM,”
The PTP1B samples used in the isothermal titration calorimetry experiments were dialyzed completely against buffer. High-concentration stock solutions were prepared for ligands with distilled water, and adjusted to pH 7.0. Stock was diluted at least 26-fold with 50 mM 3,3-dimethylglutarate buffer before titration. Protein dilution during titration was determined by titration of buffer into the protein solution. […] The heat of ligand dilution was corrected by subtracting the average heat of injection after saturation.
The binding data were analyzed using ORIGIN software (29). Binding constant, K, and enthalpy change, ΔH, were used to calculate free energy change, ΔG, and entropy change, ΔS, according to equation [1]: −RTLnK=ΔG=ΔH−TΔS [1] where R is the gas constant and T is the absolute temperature.

[4] = tested on: EGFR^988-998 peptide, DADEpYLIPQQG; test: Kinetic constants for PTP1B-catalyzed hydrolysis of pTyr-containing EGFR988-998 peptide; assay type: biochemical; details: EGFR988-998 peptide as substrate
From the text: The catalytic domain of PTP1B (residues 1 to 321) was used for in vitro study. PTP1B mutants, C215S, D181A, and Q262A, were described previously (9, 25, 26). PTP1B double mutants, D181A/C215S and C215S/Q262A, were generated by PCR reactions, according to the standard procedure of the Quick-Change™ site-directed mutagenesis kit (Stratagene), using pT7-7/PTP1B/C215S as a template. PTP1B double mutants, D181A/C215E and D181A/Q262A, were generated by similar PCR procedures, using pT7-7/PTP1B/D181A as a template. The recombinant wild-type and mutant PTP1Bs were expressed in E. coli, and purified to homogeneity as described (25, 27). Protein concentration was determined from absorbance measurement at 280 nm, using an absorbance coefficient of 1.24 for 1 mg/ml PTP1B.
All assays were performed at 25° C. in buffer (pH 7.0, ionic strength=0.15 M) containing 50 mM 3,3-dimethylglutarate and 1 mM EDTA. A continuous spectrophotometric assay, previously described (28), was employed to determine kcat and Km for the pTyr-containing peptides. The dephosphorylation reaction was monitored by either an increase in absorbance at 282 nm, or an increase in fluorescence at 305 nm. Fluorometric and absorbance determinations were performed on a Perkin-Elmer LS50B fluorometer and a Perkin-Elmer Lambda 14 spectrophotometer, respectively. The instruments were equipped with a water-jacketed cell holder, permitting maintenance of the reaction mixture at the desired temperature (25° C.).

[5] = target: B1; test: ITC; complex titration curve, no Kd obtained
[6] = tested on: EGF receptor; test: Substrate protection: EGF receptor tyrosine phosphorylation in COS1 cells expressing PTP1B forms (anti-pTyr Western blot); assay type: cell-based, Monkey; details: COS1 cell lysates, anti-pTyr immunoblot (FIG. 4)
Procedure: FIG. 4 sets forth Western blots (WB) that show the level of tyrosine phosphorylation in the epidermal growth factor receptor (EGFR) upon expression of the wild-type and mutant PTP1Bs (4 μg plasmid/60 mm dish) in COS1 cells. Samples (50 μg total protein) were taken from the lysates of COS1 cells transfected with 4 μg of pJ3H plasmids expressing HA-tagged wild-type PTP1B, D181A, C215S, D181A/Q262A, or D181A/C215S. These samples were loaded into each lane for SDS-PAGE electrophoresis, and transferred onto a nitrocellulose membrane. The proteins on the membrane were first immunoblotted with anti-pTyr HRP conjugate (upper panel). The membrane was then stripped and re-probed with anti-hemagglutinin (anti-HA) HRP conjugate (lower panel).
The hemagglutinin-tagged (HA-tagged) full-length human wild-type PTP1B in pJ3H expression vector was a gift from Dr. Chemoff (30). The HA-tagged PTP1B mutants, C215S, D181A, D181A/C215S, and D181A/Q262A, were generated by PCR reactions, according to the standard procedure of the Quick-Change™ site-directed mutagenesis kit (Stratagene), using pJ3H-HA-PTP1B as a template. All mutations were verified by DNA sequencing.
Monkey kidney COS1 cells (ATCC: CRL-1650) were maintained in Dulbecco's modified Eagle's minimum essential medium (DMEM), supplemented with 10% fetal bovine serum (Life Technologies, Inc.), penicillin (50 units/ml), streptomycin (50 μg/ml), and L-glutamine (2 mM) under a humidified atmosphere containing 5% CO2. In transient transfection experiments, COS1 cells were inoculated at a density of 2×10^5 cells/60-mm dish, and grown overnight in DMEM containing 10% fetal bovine serum. Transfection was performed using LipoTAXI^R according to the manufacturer's recommendations (Stratagene, Cedar Creek, Tex.). Each transfection assay included 4 μg of purified DNA mixed with LipoTAXI^R in a 1:5 DNA:lipid ratio per 60-mm dish of cells. Following transfection, the cells were exchanged to normal culture medium, and maintained for 44 to 48 h at 37° C. and 5% CO2. The efficiency of transfection, as assessed by 5-bromo-4-chloro-3-indolyl-β-D galactoside (X-Gal) staining of pCMV-β-gal-transfected (β-Gal staining kit, Invitrogen) COS cells, was 25%.
The transfected cells (treated with or without EGF) were lysed with “lysis buffer” containing 50 mM Tris-HC1 (pH 7.5), 5 mM EDTA, 150 mM NaCl, 10 mM sodium phosphate, 10 mM sodium fluoride, 5 mM iodoacetic acid, 1 mM benzamidine, 1% Triton X-100, 10 μg/ml leupeptin, and 5 μg/ml Aprotinin. Lysate protein concentration was estimated using Bio-Rad protein assay reagent (Bio-Rad, Hercules, Calif.).
For immunoprecipitation, 1 mg of cell lysate was immunoprecipitated overnight with 30 μl of agarose-conjugated anti-hemagglutinin antibody at 4° C. Immunocomplexes were washed four times with the cell lysis buffer, and boiled for 5 min in SDS-PAGE sample buffer. Proteins in the cell lysate were separated by 8% SDS-PAGE under reducing conditions, according to the method of Laemmli (31), followed by blotting onto nitrocellulose membranes (Protran, Schleicher & Schuell). The nitrocellulose membranes were blocked with 5% non-fat dry milk in Tris-buffered saline/Tween (TBST) buffer (20 mM Tris-HC1, 150 mM NaCl, 0.1% Tween-20; pH 7.6) for 1 h at 25° C.
Thereafter, blots were incubated overnight with primary antibodies diluted in TBST containing 5% non-fat dry milk at 4° C. […]

| Molecule | Kd [1] | Kd [2] | shape of ITC titration curve [3] | phosphatase activity [4] | binding stoichiometry [5] | level of pTyr in the EGF receptor / enhancement of EGF receptor phosphorylation [6] |
| --- | --- | --- | --- | --- | --- | --- |
| B1 | 6.8 nM | 1300 nM |  |  |  |  |
| B2 |  |  | displayed two peaks | no measurable activities |  |  |
| B3 |  |  |  | no measurable activities | 0.1 | comparable affinity to that of C215S |
